# Source: the supplement of paper PMC11246515
# ± gives the standard deviation of the averaged measurements.
# Experiment: total protein half-life in vivo (active degradation + dilution); higher = more stable protein
# [1] = E. coli NCM3722 delta-clpP delta-lon delta-hslV, growth: N-lim chemostat, doubling time 6 h
# [2] = E. coli NCM3722 delta-clpP, growth: N-lim chemostat, doubling time 6 h
# [3] = E. coli NCM3722 delta-hslV, growth: N-lim chemostat, doubling time 6 h
# [4] = E. coli NCM3722 delta-lon, growth: N-lim chemostat, doubling time 6 h
# [5] = E. coli NCM3722 delta-smpB, growth: N-lim chemostat, doubling time 6 h
# [6] = wild type E. coli NCM3722, growth: C-lim chemostat, doubling time 3 h
# [7] = wild type E. coli NCM3722, growth: C-lim chemostat, doubling time 6 h
# [8] = wild type E. coli NCM3722, growth: C-lim chemostat, doubling time 12 h
# [9] = wild type E. coli NCM3722, growth: N-lim chemostat, doubling time 6 h
# [10] = wild type E. coli NCM3722, growth: N-lim chemostat, doubling time 12 h
# [11] = wild type E. coli NCM3722, growth: P-lim chemostat, doubling time 6 h
# [12] = wild type E. coli NCM3722, growth: P-lim chemostat, doubling time 12 h
Sequence,total protein half-life in vivo [1] [h],total protein half-life in vivo [2] [h],total protein half-life in vivo [3] [h],total protein half-life in vivo [4] [h],total protein half-life in vivo [5] [h],total protein half-life in vivo [6] [h],total protein half-life in vivo [7] [h],total protein half-life in vivo [8] [h],total protein half-life in vivo [9] [h],total protein half-life in vivo [10] [h],total protein half-life in vivo [11] [h],total protein half-life in vivo [12] [h]
MTQDELKKAVGWAALQYVQPGTIVGVGTGSTAAHFIDALGTMKGQIEGAVSSSDASTEKLKSLGIHVFDLNEVDSLGIYVDGADEINGHMQMIKGGGAALTREKIIASVAEKFICIADASKQVDILGKFPLPVEVIPMARSAVARQLVKLGGRPEYRQGVVTDNGNVILDVHGMEILDPIAMENAINAIPGVVTVGLFANRGADVALIGTPDGVKTIVK [P0A7Z0],4.63 ± 0.6,3.964 ± 0.033,4.16 ± 0.58,4.46 ± 0.19,4.21 ± 0.072,2.89 ± 0.12,5.36 ± 0.4,9.4966 ± 0.0081,4.01 ± 0.3,6.79 ± 0.038,5.1 ± 0.3,11.6 ± 0.7
MTQENEIKRPIQDLEHEPIKPLDNSEKGSKVSQALETVTTTAEKVQRQPVIAHLIRATERFNDRLGNQFGAAITYFSFLSMIPILMVSFAAGGFVLASHPMLLQDIFDKILQNISDPTLAATLKNTINTAVQQRTTVGLVGLAVALYSGINWMGNLREAIRAQSRDVWERSPQDQEKFWVKYLRDFISLIGLLIALIVTLSITSVAGSAQQMIISALHLNSIEWLKPTWRLIGLAISIFANYLLFFWIFWRLPRHRPRKKALIRGTFLAAIGFEVIKIVMTYTLPSLMKSPSGAAFGSVLGLMAFFYFFARLTLFCAAWIATAEYKDDPRMPGKTQP,4.96 ± 0.058,4.8 ± 0.18,3.99 ± 0.46,3.56 ± 0.56,4.74 ± 0.46,2.41 ± 0.45,4.07 ± 0.12,7.18 ± 1.4,4.21 ± 0.15,6.7 ± 0.46,4.02 ± 0.11,6.92 ± 0.24
MTQFTQNTAMPSSLWQYWRGLSGWNFYFLVKFGLLWAGYLNFHPLLNLVFAAFLLMPLPRYSLHRLRHWIALPIGFALFWHDTWLPGPESIMSQGSQVAGFSTDYLIDLVTRFINWQMIGAIFVLLVAWLFLSQWIRITVFVVAILLWLNVLTLAGPSFSLWPAGQPTTTVTTTGGNAAATVAATGGAPVVGDMPAQTAPPTTANLNAWLNNFYNAEAKRKSTFPSSLPADAQPFELLVINICSLSWSDIEAAGLMSHPLWSHFDIEFKNFNSATSYSGPAAIRLLRASCGQTSHTNLYQPANNDCYLFDNLSKLGFTQHLMMGHNGQFGGFLKEVRENGGMQSELMDQTNLPVILLGFDGSPVYDDTAVLNRWLDVTEKDKNSRSATFYNTLPLHDGNHYPGVSKTADYKARAQKFFDELDAFFTELEKSGRKVMVVVVPEHGGALKGDRMQVSGLRDIPSPSITDVPVGVKFFGMKAPHQGAPIVIEQPSSFLAISDLVVRVLDGKIFTEDNVDWKKLTSGLPQTAPVSENSNAVVIQYQDKPYVRLNGGDWVPYPQ,3.61 ± 0.11,4.03 ± 0.34,2.98 ± 1.2,3.68 ± 0.32,3.66 ± 0.32,2.602 ± 0.019,4.28 ± 0.59,8.3 ± 0.53,4.05 ± 0.25,6.43 ± 1.3,3.91 ± 0.42,6.54 ± 0.083
MTQLAIGKPAPLGAHYDGQGVNFTLFSAHAERVELCVFDANGQEHRYDLPGHSGDIWHGYLPDARPGLRYGYRVHGPWQPAEGHRFNPAKLLIDPCARQIDGEFKDNPLLHAGHNEPDYRDNAAIAPKCVVVVDHYDWEDDAPPRTPWGSTIIYEAHVKGLTYLHPEIPVEIRGTYKALGHPVMINYLKQLGITALELLPVAQFASEPRLQRMGLSNYWGYNPVAMFALHPAYACSPETALDEFRDAIKALHKAGIEVILDIVLNHSAELDLDGPLFSLRGIDNRSYYWIREDGDYHNWTGCGNTLNLSHPAVVDYASACLRYWVETCHVDGFRFDLAAVMGRTPEFRQDAPLFTAIQNCPVLSQVKLIAEPWDIAPGGYQVGNFPPLFAEWNDHFRDAARRFWLHYDLPLGAFAGRFAASSDVFKRNGRLPSAAINLVTAHDGFTLRDCVCFNHKHNEANGEENRDGTNNNYSNNHGKEGLGGSLDLVERRRDSIHALLTTLLLSQGTPMLLAGDEHGHSQHGNNNAYCQDNQLTWLDWSQASSGLTAFTAALIHLRKRIPALVENRWWEEGDGNVRWLNRYAQPLSTDEWQNGPKQLQILLSDRFLIAINATLEVTEIVLPAGEWHAIPPFAGEDNPVITAVWQGPAHGLCVFQR,5.66 ± 0.38,5.35 ± 0.093,5.23 ± 0.074,6.01 ± 0.45,5.62 ± 0.72,3.31 ± 0.7,5.47 ± 0.28,10.5 ± 0.48,5.46 ± 0.36,10.2 ± 0.7,6.42 ± 0.68,11.6 ± 1.6
MTQPLVGKQILIVEDEQVFRSLLDSWFSSLGATTVLAADGVDALELLGGFTPDLMICDIAMPRMNGLKLLEHIRNRGDQTPVLVISATENMADIAKALRLGVEDVLLKPVKDLNRLREMVFACLYPSMFNSRVEEEERLFRDWDAMVDNPAAAAKLLQELQPPVQQVISHCRVNYRQLVAADKPGLVLDIAALSENDLAFYCLDVTRAGHNGVLAALLLRALFNGLLQEQLAHQNQRLPELGALLKQVNHLLRQANLPGQFPLLVGYYHRELKNLILVSAGLNATLNTGEHQVQISNGVPLGTLGNAYLNQLSQRCDAWQCQIWGTGGRLRLMLSAE [P0AEV1],3.97 ± 0.57,3.09 ± 0.13,3.094 ± 0.028,3.57 ± 0.32,2.961 ± 0.028,2.72 ± 0.33,4.34 ± 0.48,8.52 ± 0.76,3.39 ± 0.12,5.16 ± 0.3,5.53 ± 0.37,10.1 ± 0.53
